# Paper PMC3201874
# Molecular target: huPrP(23-110) (human) (UniProt P04156)
# Conditions: FRET: 25 mM Tris-HCl pH 7.5, 30 mM NaCl, 0.2 mM MgCl2, 20 C
# huPrP(23-110) (human), sequence (P04156 23-110): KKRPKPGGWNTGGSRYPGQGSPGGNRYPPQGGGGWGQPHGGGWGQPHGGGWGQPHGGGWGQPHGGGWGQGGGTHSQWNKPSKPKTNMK
substance,measurement,value
cTAR,Ka,> 1e+07 M⁻¹
